Test results: the supplement of paper PMC12636428

Test system: Saccharomyces cerevisiae
Assay: transcriptional activation domain activity (GFP:mCherry ratio, weighted mean of sorted bins, harmonized to initial dataset scale) (arbitrary fluorescence ratio units); higher = stronger transcriptional activation
Settings: beta-estradiol 1 µM; induction time 4 h
How it was run: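 Sorting into 8 bins by GFP:mCherry ratio followed a 4-hour hold at 30 °C after cultures were diluted 1:5 into SC with 1 uM beta-estradiol. The yeast diploids carried a GFP reporter and had barcoded protein tiles, fused to an estradiol-inducible synthetic transcription factor, integrated at URA3. Barcodes were then sequenced, and tiles with under 50 reads were removed. Activation activity is the read-weighted mean of bin median fluorescence, averaged across barcodes and linearly mapped onto the initial dataset scale.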

Sequence	transcriptional activation domain activity
KDESSSSRRRRGGRSEKEKRERTGDEGDSSSRHRSGRDREGDEEADDDERGSS	37500
KDEVMKIKPVQKQTTAGQRTRFKAVVIVGDSNGHVGLGIKSAKEVATAIRAAI	55100
KDEVMKIMPVQKQTRAGQRTRFKAFVVIGDSDGHVGLGVKCAKEVATAIRGAI	61200
KDGKNEVIVDMQRVRERKREIVNSFRGGSEKRVADAGVTVLMGSASFVDSKTV	34900
KDGKQRRTREAAGSGHARRRRRGDRERRKGQPRAGRPGAKAKGKAGGTGAKQE	15700
KDHIGMKCVVAIVCLLDTMHQIFITHALYIYLIKGFANPLILTRLLWTFLIQL	56400
KDKNKEKERGKHKHRRRERDGDGDGDEEDGRSSKKHKKERGQKRSEKEGGGED	42100
KDLKDGTRAPGDESERIVVEELDMERVALDRTLGRLWRSWKKRIRSPTEPSFG	34300
KDLNVVEGWEHQGVLRAAANTVKSVRMKESSTGGSQEKVYLKLVESTGHTLQG	21200
KDNATTAAVAAASSEKDDEKKAKEENKPDDKKTEEKKAEEKKSDDTAKDDASK	34300
KDPWHIKALVAFVWILDVAHTILISCFVYTLTIVYYGRAQELLKFICLYILIL	45100
KDQIMYYIHLVIMISTIIQALVQHMIVVNTLPTYFCHPINVFSNFFWHVQFTL	39300
KDRKEKAEEKSGEEDRGKREDGAAEGEEREEVKRSAARKPKTVPAAASKKRPK	34600
KDSDDESEDSDAKSKKRKKRKRVVESDEGSGSEAESKKRKKKRKAEDSDVSGS	22600
KDYSVEAGIRFLQFIIHKCITVDIGVLCDIIDKVYGSLVIINCLRRYRNLHNL	48500
KEAKSKSKAAHDNDAKRKTTATKPKRTSARNGKAPVKSKPKKGGGNAEPSAKK	10300
KEDAGEAEAEGSGDKAEEAIAEKPKRGRKKAEPKEKAEPAAKPAVGRKKSVAE	45700
KEDILLTLYENSTFGGLWSKLSDCLTVIRQRGNMLNIATILLPLIEALMVVCK	54700
KEEAESEAEASAPKGKKGTVKKPAAAAKAKDVDEPKAKRGRPKKTVAKDEVEN	< 6570
KEEAGEEAEEASPAPSEQKEEAPPSGQKPQANTGKKKDQASPAKKTGATAAAK	13700
KEEAPAEEQEKEEKKEKVPLSDARKGRARGPQRRAPAAAKAAAAAAAAPAPAV	34400
KEEDEAPAPRKARGKAKKAIVEEEEAPESEVEAPEPKAKKGRGRKAAVKKVVS	< 6570
KEEEDRKRAEEEEERERERRRQDEVDRRRRMQDEAKQREAEAKKQAARAAALA	35500
KEEEQKELDRMAREEKKVWGDALRLGRTSWSESVMVWSHVMALRVFVETVLRY	62900
KEEEQKGEKEEDESEKETEKEEKKEEKKEKRKLMRRKPKAEELESEASEDERE	21700

Sequence	transcriptional activation domain activity
KEEESNELKSEQEPPSAVESIAAVMTPSDNGSRFYIKRRILIGNVSKYIAPER	23100
KEEETKPEEAAATEATPEATTEPAAEGAEAPKEEAKTDAAAETKKEDRPKSPG	20500
KEENKKDDLKEATKKGRKPRAAKEEAKEEAEGVKPKGRKRKATEEASDEIVVA	23400
KEESGAKTPQSPASKSADDKNATREKEGAGSPDAAKGKGNEEVQTESGRDDRK	28400
KEGMGWVDVLFSVCTSIILVQLVFVLGWWLLFLFLSMYHMLTFCIIIFILYKY	53300
KEKAKAKAKERKREERRKEKEKRAKEKEREKKRLREKEKRRKEKEKEKRRKEK	14900
KEKEDYALAIKLYADSIIITLRRLFKELDYIEIKSLIISSMFKVLLYNLLIYK	66200
KEKEKQERDARRREKEGAAAAAAGEKRKVEEGSAGGEAVKKAKVGAAAAAVAA	47800
KEKEVKAEVEEDGSEQEEGEGEEEEEGATRSSARKGKGRATAGGRKTRRGAAG	19400
KEKSASERKEEKRQKKMRGEDVSDSEEEKRKRKDKQRGQRVHAVGSGTTSGAS	35900
KEREQREQREQRRKEEREREKERERERELRERERERERERQQAREEAERAAMG	15400
KESPILVGLICIFNASTFLQMMFYAAISLPLNEDACFGVNFVQTLLWHISFCT	74000
KESRKERHHDSDRRHKRRHRSREGGEGRDRDRDHRRHHRHGRDRSRSRERKLG	67400
KESTTPSGTIKEVEGGEKGEEGTVAKQNNGEKGLVKSAGRNFLVDERVLRQSF	40600
KEVAAAEVAPADTAAAEAKPSKKEKKEKEKKPAEGPEGGKKKEKAAGGGGKAA	24500
KEVASADTKPADAPAGEAKAPKKEKKEKEKKPAEAAEGGKKKEKAAGGGGKAA	36100
KEVKEGEEGEKPKRGRKRKEAPAENGEEKEEKEPAAKKAKPASKAAPGSKPAS	12700
KEVKEGEEGEKPKRGRKRKEAPAENGEKEPAAKKAKLASKAAPGSKPASKAAS	28300
KEVMDQIHAIWCILLYLYYGTLETDHVFRFCFAPNVSRPLSELEQRFFNERHG	48000
KFANNVSEMKKLGARDFEDILQNLIPVVDGLLDEPYNSWILTLLFRLAEWHAL	42400
KFCAITLAGTWGKVVLYSLAMTRVVSYCYNIYYMDSVFSRTIRPGIGICFTSL	67100
KFFVRHQHKLYYVILSLGRFNLHNLSFTYLFTAPRVRYRWLEIFGICVFFTWY	55900
KFHYRCGVAAKDTTESLRWVVADHYTWFTCTHCAAHKAHWYFDGSLGLVRLWF	69200
KFIGYQWAYFAVISGALLYAWSRVIMLFVLRILPQDIRLIAFIITSIYCLILL	24900
KFIWRSSWSLPKIMYLLIRYLGLVCLLYYAMNAVTVQKSIAVCQLYIISMHTV	67000

Sequence	transcriptional activation domain activity
KFKTFPLFLPRINFHSIPSFNILLSSFPNSIFLNVLFRISLYYIWAYFLWCAL	52000
KFLRHVLLKYFSFRLRSWMLNWAIGCVVRLFFFILHLLHPSWIFFLIYPYILN	54400
KFNLLEWSEILSLLTCYRLLIAMYSFRSLVIVIASYIVFGLSVFSLLVRLLFL	38100
KFNNRLSSDSTSPIKYEADVSAGGKISEDNSTKGSSKESSAIADELDWLKFGI	40600
KFPLFMLIAQGSFAFILWCFPFRSFLFIWALLMFTHTPLPSLLLLASCFSFSF	60100
KFQERMMVLKEIKLISLGDVRKITYSRMGYTDWKIVVLGRMWNLRFFVATGWD	64400
KFSLGGALYLLTRYCVLLQLIFDVTYEMQPPWTLNNVVWVANISDLVSGISIH	34400
KFTAFTFLPLTLWHEFSFFFNLYFLVVALSQCIPVLRIGYLSSYIVPLVFVLA	54900
KFVDLGIFKAEGTRLRCRMCGFLIASLVLCMHMSQACPMYPRYPSSNMHEHPD	29300
KFWFFLLFYYGFYNLTALLMVSQYFNLYSFHWWPKSIGGLWSTFFFWLFSMFL	58400
KFYARILKLLLLLNHILIIAGVNESPYSKDKVIRYLFNMFRLWTTKRSAKENQ	62000
KFYVIYTLFMVVFFMVLTICYYTNGSYGRDALGLCNFKEWNGRLVSRVYMMYL	45000
KGAKDEKKEDAKGGEEGKDATKQREKEESKGGKLESTPSKEFSDGKEQQEKKG	40400
KGANQAVACAKLSRSRPQPSSSTSSSSTEAGANDAETHATAHVSMLGAVGDDS	18700
KGAPKKSKGEEKEEVVAEETKVEVKVVKETKKVDKAAKAETKKDEVKKVKKVE	46000
KGDLESFRRITDLNLTHEHARWFCRYHMFYQLGNYCEIYLWRSIFRKVFLLTG	54700
KGEERGMEKDKEKDKDRDREVKKEKAREARADKEGARPKAAIRQVKVKSAVKQ	56500
KGEKDKENDKGEKGEGEKKGENRSRRRRGGRGRGSGDKDKEKDKDGGGGAKKA	27800
KGETAFVEVDEFNRRKDGKEEGGVHNSDMVIKVYLPPHFRVRIALFVLAIWAF	23800
KGFDSQCIEEWDPILFSAAEIWPTKGKPIALVEMDPIDFDFDVDNWDYVTRHL	174000
KGFSLTELVFWLWSLGFILDELVGFSDAGFTLYVMSLWNWFDLIILLLLCSYA	49900
KGGASPEDASAQSGGSRSKEAKETGSSPTGGKVGNSGGKSSSSSGGPEEKNKD	35600
KGGEKKEGEEQNGGGEKKGGEEQKGGGEKKGRWVEEKGGEEQKGGAIAAAGQN	14200
KGGEYHRRKGDETSSQGQMGKKVKSEKGEEEKERRKKKERVKQHVVNVRVAEQ	41900
